T1: BTLA (UniProt Q7Z6A9 31-151, limits assumed)
T1 construct: also called B- and T-lymphocyte attenuator
T1 sequence (looked up): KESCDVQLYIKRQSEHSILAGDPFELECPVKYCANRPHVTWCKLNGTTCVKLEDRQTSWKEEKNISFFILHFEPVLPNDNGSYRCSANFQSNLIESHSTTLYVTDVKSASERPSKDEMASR

T2: CTLA-4 (human, UniProt P16410 37-162, limits assumed)
T2 construct: also called cytotoxic T lymphocyte antigen-4
T2 sequence (looked up): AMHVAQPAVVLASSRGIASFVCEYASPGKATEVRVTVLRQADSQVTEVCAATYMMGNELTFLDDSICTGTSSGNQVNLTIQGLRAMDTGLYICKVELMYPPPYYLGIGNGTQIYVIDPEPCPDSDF

T3: ICOS (UniProt Q9Y6W8 21-141, limits assumed)
T3 construct: also called inducible co-stimulator
T3 sequence (looked up): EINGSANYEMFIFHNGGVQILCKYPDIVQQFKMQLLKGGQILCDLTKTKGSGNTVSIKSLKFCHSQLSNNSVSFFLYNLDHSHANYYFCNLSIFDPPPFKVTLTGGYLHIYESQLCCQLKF

T4: mouse CSF1R (mouse, UniProt P09581 20-511, limits assumed)
T4 construct: In the mNFS60 proliferation assay the receptor is that of the cell line
T4 sequence (looked up): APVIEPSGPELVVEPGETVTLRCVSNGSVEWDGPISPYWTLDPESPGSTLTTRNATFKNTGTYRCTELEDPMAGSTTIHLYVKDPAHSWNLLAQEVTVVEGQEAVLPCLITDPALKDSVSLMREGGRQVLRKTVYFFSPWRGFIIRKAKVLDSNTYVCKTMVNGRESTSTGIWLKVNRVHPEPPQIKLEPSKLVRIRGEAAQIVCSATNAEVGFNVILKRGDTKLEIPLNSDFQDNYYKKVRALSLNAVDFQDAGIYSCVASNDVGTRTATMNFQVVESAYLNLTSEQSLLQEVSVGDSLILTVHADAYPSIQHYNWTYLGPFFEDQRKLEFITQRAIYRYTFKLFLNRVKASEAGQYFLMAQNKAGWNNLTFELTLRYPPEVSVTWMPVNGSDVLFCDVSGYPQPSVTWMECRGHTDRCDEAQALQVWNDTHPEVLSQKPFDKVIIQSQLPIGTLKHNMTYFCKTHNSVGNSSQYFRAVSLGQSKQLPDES


Legend:
BTLA = target: T1, BTLA; experiment: in vitro, method not described
CTLA-4 = target: T2, CTLA-4; experiment: in vitro, method not described
ICOS = target: T3, ICOS; experiment: in vitro, method not described
mouse CSF1R = target: T4, mouse CSF1R; experiment: not described
[1] = target: T5, human colony stimulating factor 1 receptor (CSF1R) (human, UniProt P07333 20-506, limits assumed); experiment: not described
T5 construct: In the monocyte assays the receptor is the endogenous one on primary human monocytes; also called hCSF1R
T5 sequence (P07333 20-506 limits assumed): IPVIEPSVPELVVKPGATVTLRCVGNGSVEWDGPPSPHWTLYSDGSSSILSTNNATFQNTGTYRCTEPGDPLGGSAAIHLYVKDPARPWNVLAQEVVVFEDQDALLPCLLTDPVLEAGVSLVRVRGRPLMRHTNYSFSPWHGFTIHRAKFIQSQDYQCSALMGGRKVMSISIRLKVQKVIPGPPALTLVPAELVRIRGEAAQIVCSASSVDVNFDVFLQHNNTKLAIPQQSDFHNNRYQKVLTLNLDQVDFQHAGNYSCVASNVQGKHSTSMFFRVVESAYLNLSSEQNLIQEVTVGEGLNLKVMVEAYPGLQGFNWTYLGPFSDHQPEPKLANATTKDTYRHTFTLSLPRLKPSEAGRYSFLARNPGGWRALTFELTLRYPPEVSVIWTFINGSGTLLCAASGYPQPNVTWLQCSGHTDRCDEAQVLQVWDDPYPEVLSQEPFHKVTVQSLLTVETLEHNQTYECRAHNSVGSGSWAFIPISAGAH

| binding result (BTLA) | binding result (CTLA-4) | binding result (ICOS) | binding result (mouse CSF1R) | binding result [1] | Binder |
| --- | --- | --- | --- | --- | --- |
| no binding | no binding | no binding | – | – | Nivolumab (antibody, human IgG4 S228P, kappa, V domains shown, also called Opdivo; 5C4) VH: QVQLVESGGGVVQPGRSLRLDCKASGITFSNSGMHWVRQAPGKGLEWVAVIWYDGSKRYYADSVKGRFTISRDNSKNTLFLQMNSLRAEDTAVYYCATNDDYWGQGTLVTVSS VL: EIVLTQSPATLSLSPGERATLSCRASQSVSSYLAWYQQKPGQAPRLLIYDASNRATGIPARFSGSGSGTDFTLTISSLEPEDFAVYYCQQSSNWPRTFGQGTKVEIKR |
| – | – | – | no binding | binds | Cabiralizumab (antibody, human IgG4 S228P, kappa, V domains shown, also called FPA008; HuAb1) VH: QVQLVQSGAEVKKPGSSVKVSCKASGYTFTDNYMIWVRQAPGQGLEWMGDINPYNGGTTFNQKFKGRVTITADKSTSTAYMELSSLRSEDTAVYYCARESPYFSNLYVMDYWGQGTLVTVSS VL: EIVLTQSPATLSLSPGERATLSCKASQSVDYDGDNYMNWYQQKPGQAPRLLIYAASNLESGIPARFSGSGSGTDFTLTISSLEPEDFAVYYCHLSNEDLSTFGGGTKVEIKR |
